For six molecules, EC50 [nM], 0% HSA and EC50 [nM], 0.1% HSA results are on record in patent publication US12679878B2, “CRF2 receptor agonists and their use in therapy” (SANOFI, priority 2020, dated 2026).

Starred links: 1 amine or outer side, 2 acyl side, 3 side chain; linkers in the order of their positions; H or OH if unused. Non-standard residues stand in square brackets, D forms with d. Groups on a side chain read outwards from the residue. No end group written: not given here. *: point of attachment. C18 diacid = O=C(O)CCCCCCCCCCCCCCCCC(=O)*; γGlu = O=C(O)[C@H](CCC(=O)[*:2])N[*:1]; Palmitoyl = CCCCCCCCCCCCCCCC(=O)*; AEEA = NCCOCCOCC(=O)O; Aib = CC(C)(N)C(=O)O

For the experiment, the target named is human corticotropin-releasing factor 2α (CRF2 α receptor) (human), Q13324. Nature of the experiment: cell-based or functional assay.
human corticotropin-releasing factor 2α (CRF2 α receptor) (human), Q13324, sequence (Q13324 20-411): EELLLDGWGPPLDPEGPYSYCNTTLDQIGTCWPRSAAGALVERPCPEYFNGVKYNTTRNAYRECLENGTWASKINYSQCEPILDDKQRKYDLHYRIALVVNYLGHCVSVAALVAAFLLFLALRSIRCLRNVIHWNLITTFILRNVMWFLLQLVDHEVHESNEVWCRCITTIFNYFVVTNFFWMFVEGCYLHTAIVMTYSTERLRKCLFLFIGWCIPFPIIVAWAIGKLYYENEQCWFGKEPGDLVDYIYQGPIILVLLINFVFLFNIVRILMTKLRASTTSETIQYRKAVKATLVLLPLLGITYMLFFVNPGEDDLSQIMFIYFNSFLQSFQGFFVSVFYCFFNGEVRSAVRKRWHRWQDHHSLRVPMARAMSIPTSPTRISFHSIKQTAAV

B1: SEQ ID NO: 141 (peptide)
peptide: IVLSLD[dV]PIKLK([AEEA-AEEA-γGlu-C18 diacid])QILLKQARQK[Aib]QRAQAEKNKRILERV-NH2
modifications: N-terminus assumed
SMILES: CC[C@H](C)[C@H](N)C(=O)N[C@H](C(=O)N[C@@H](CC(C)C)C(=O)N[C@@H](CO)C(=O)N[C@@H](CC(C)C)C(=O)N[C@@H](CC(=O)O)C(=O)N[C@@H](C(=O)N1CCC[C@H]1C(=O)N[C@H](C(=O)N[C@@H](CCCCN)C(=O)N[C@@H](CC(C)C)C(=O)N[C@@H](CCCCNC(=O)COCCOCCNC(=O)COCCOCCNC(=O)CC[C@H](NC(=O)CCCCCCCCCCCCCCCCC(=O)O)C(=O)O)C(=O)N[C@@H](CCC(N)=O)C(=O)N[C@H](C(=O)N[C@@H](CC(C)C)C(=O)N[C@@H](CC(C)C)C(=O)N[C@@H](CCCCN)C(=O)N[C@@H](CCC(N)=O)C(=O)N[C@@H](C)C(=O)N[C@@H](CCCNC(=N)N)C(=O)N[C@@H](CCC(N)=O)C(=O)N[C@@H](CCCCN)C(=O)NC(C)(C)C(=O)N[C@@H](CCC(N)=O)C(=O)N[C@@H](CCCNC(=N)N)C(=O)N[C@@H](C)C(=O)N[C@@H](CCC(N)=O)C(=O)N[C@@H](C)C(=O)N[C@@H](CCC(=O)O)C(=O)N[C@@H](CCCCN)C(=O)N[C@@H](CC(N)=O)C(=O)N[C@@H](CCCCN)C(=O)N[C@@H](CCCNC(=N)N)C(=O)N[C@H](C(=O)N[C@@H](CC(C)C)C(=O)N[C@@H](CCC(=O)O)C(=O)N[C@@H](CCCNC(=N)N)C(=O)N[C@H](C(N)=O)C(C)C)[C@@H](C)CC)[C@@H](C)CC)[C@@H](C)CC)C(C)C)C(C)C
With B1, the EC50 [nM], 0% HSA is 0.03 nM and the EC50 [nM], 0.1% HSA came to 0.97 nM.

B2: SEQ ID NO: 15 (peptide)
peptide: FTLSLDVPTKIK([γGlu-Palmitoyl])QKLFKQAKQKKQRQKAKTNAQILARV-NH2
modifications: N-terminus assumed
SMILES: CCCCCCCCCCCCCCCC(=O)N[C@@H](CCC(=O)NCCCC[C@H](NC(=O)[C@@H](NC(=O)[C@H](CCCCN)NC(=O)[C@@H](NC(=O)[C@@H]1CCCN1C(=O)[C@@H](NC(=O)[C@H](CC(=O)O)NC(=O)[C@H](CC(C)C)NC(=O)[C@H](CO)NC(=O)[C@H](CC(C)C)NC(=O)[C@@H](NC(=O)[C@@H](N)Cc1ccccc1)[C@@H](C)O)C(C)C)[C@@H](C)O)[C@@H](C)CC)C(=O)N[C@@H](CCC(N)=O)C(=O)N[C@@H](CCCCN)C(=O)N[C@@H](CC(C)C)C(=O)N[C@@H](Cc1ccccc1)C(=O)N[C@@H](CCCCN)C(=O)N[C@@H](CCC(N)=O)C(=O)N[C@@H](C)C(=O)N[C@@H](CCCCN)C(=O)N[C@@H](CCC(N)=O)C(=O)N[C@@H](CCCCN)C(=O)N[C@@H](CCCCN)C(=O)N[C@@H](CCC(N)=O)C(=O)N[C@@H](CCCNC(=N)N)C(=O)N[C@@H](CCC(N)=O)C(=O)N[C@@H](CCCCN)C(=O)N[C@@H](C)C(=O)N[C@@H](CCCCN)C(=O)N[C@H](C(=O)N[C@@H](CC(N)=O)C(=O)N[C@@H](C)C(=O)N[C@@H](CCC(N)=O)C(=O)N[C@H](C(=O)N[C@@H](CC(C)C)C(=O)N[C@@H](C)C(=O)N[C@@H](CCCNC(=N)N)C(=O)N[C@H](C(N)=O)C(C)C)[C@@H](C)CC)[C@@H](C)O)C(=O)O
For B2, the EC50 [nM], 0% HSA came to 0.88 nM.

B3: SEQ ID NO: 143 (peptide)
peptide: FTLSLDVPTKIK([AEEA-AEEA-γGlu-C18 diacid])QILLKQEKQKKQRQKAKTNKQILERV-NH2
modifications: N-terminus assumed
SMILES: CC[C@H](C)[C@H](NC(=O)[C@H](CCC(N)=O)NC(=O)[C@H](CCCCN)NC(=O)[C@H](CC(N)=O)NC(=O)[C@@H](NC(=O)[C@H](CCCCN)NC(=O)[C@H](C)NC(=O)[C@H](CCCCN)NC(=O)[C@H](CCC(N)=O)NC(=O)[C@H](CCCNC(=N)N)NC(=O)[C@H](CCC(N)=O)NC(=O)[C@H](CCCCN)NC(=O)[C@H](CCCCN)NC(=O)[C@H](CCC(N)=O)NC(=O)[C@H](CCCCN)NC(=O)[C@H](CCC(=O)O)NC(=O)[C@H](CCC(N)=O)NC(=O)[C@H](CCCCN)NC(=O)[C@H](CC(C)C)NC(=O)[C@H](CC(C)C)NC(=O)[C@@H](NC(=O)[C@H](CCC(N)=O)NC(=O)[C@H](CCCCNC(=O)COCCOCCNC(=O)COCCOCCNC(=O)CC[C@H](NC(=O)CCCCCCCCCCCCCCCCC(=O)O)C(=O)O)NC(=O)[C@@H](NC(=O)[C@H](CCCCN)NC(=O)[C@@H](NC(=O)[C@@H]1CCCN1C(=O)[C@@H](NC(=O)[C@H](CC(=O)O)NC(=O)[C@H](CC(C)C)NC(=O)[C@H](CO)NC(=O)[C@H](CC(C)C)NC(=O)[C@@H](NC(=O)[C@@H](N)Cc1ccccc1)[C@@H](C)O)C(C)C)[C@@H](C)O)[C@@H](C)CC)[C@@H](C)CC)[C@@H](C)O)C(=O)N[C@@H](CC(C)C)C(=O)N[C@@H](CCC(=O)O)C(=O)N[C@@H](CCCNC(=N)N)C(=O)N[C@H](C(N)=O)C(C)C
Consider B3, for which the EC50 [nM], 0% HSA came to 1.44 nM and the EC50 [nM], 0.1% HSA worked out at 93.8 nM.

B4: SEQ ID NO: 140 (peptide)
peptide: IVLSLD[dV]PIKLK([AEEA-AEEA-γGlu-C18 diacid])QILLEQARQK[Aib]QRAQAEKNKRILERV-NH2
modifications: N-terminus assumed
SMILES: CC[C@H](C)[C@H](N)C(=O)N[C@H](C(=O)N[C@@H](CC(C)C)C(=O)N[C@@H](CO)C(=O)N[C@@H](CC(C)C)C(=O)N[C@@H](CC(=O)O)C(=O)N[C@@H](C(=O)N1CCC[C@H]1C(=O)N[C@H](C(=O)N[C@@H](CCCCN)C(=O)N[C@@H](CC(C)C)C(=O)N[C@@H](CCCCNC(=O)COCCOCCNC(=O)COCCOCCNC(=O)CC[C@H](NC(=O)CCCCCCCCCCCCCCCCC(=O)O)C(=O)O)C(=O)N[C@@H](CCC(N)=O)C(=O)N[C@H](C(=O)N[C@@H](CC(C)C)C(=O)N[C@@H](CC(C)C)C(=O)N[C@@H](CCC(=O)O)C(=O)N[C@@H](CCC(N)=O)C(=O)N[C@@H](C)C(=O)N[C@@H](CCCNC(=N)N)C(=O)N[C@@H](CCC(N)=O)C(=O)N[C@@H](CCCCN)C(=O)NC(C)(C)C(=O)N[C@@H](CCC(N)=O)C(=O)N[C@@H](CCCNC(=N)N)C(=O)N[C@@H](C)C(=O)N[C@@H](CCC(N)=O)C(=O)N[C@@H](C)C(=O)N[C@@H](CCC(=O)O)C(=O)N[C@@H](CCCCN)C(=O)N[C@@H](CC(N)=O)C(=O)N[C@@H](CCCCN)C(=O)N[C@@H](CCCNC(=N)N)C(=O)N[C@H](C(=O)N[C@@H](CC(C)C)C(=O)N[C@@H](CCC(=O)O)C(=O)N[C@@H](CCCNC(=N)N)C(=O)N[C@H](C(N)=O)C(C)C)[C@@H](C)CC)[C@@H](C)CC)[C@@H](C)CC)C(C)C)C(C)C
B4: the EC50 [nM], 0% HSA stood at 0.04 nM and the EC50 [nM], 0.1% HSA came to 1.27 nM.

B5: SEQ ID NO: 142 (peptide)
peptide: IVLSLD[dV]PIKLK([AEEA-AEEA-γGlu-C18 diacid])QILLEQARQK[Aib]QREQAEKNKRILERV-NH2
modifications: N-terminus assumed
SMILES: CC[C@H](C)[C@H](N)C(=O)N[C@H](C(=O)N[C@@H](CC(C)C)C(=O)N[C@@H](CO)C(=O)N[C@@H](CC(C)C)C(=O)N[C@@H](CC(=O)O)C(=O)N[C@@H](C(=O)N1CCC[C@H]1C(=O)N[C@H](C(=O)N[C@@H](CCCCN)C(=O)N[C@@H](CC(C)C)C(=O)N[C@@H](CCCCNC(=O)COCCOCCNC(=O)COCCOCCNC(=O)CC[C@H](NC(=O)CCCCCCCCCCCCCCCCC(=O)O)C(=O)O)C(=O)N[C@@H](CCC(N)=O)C(=O)N[C@H](C(=O)N[C@@H](CC(C)C)C(=O)N[C@@H](CC(C)C)C(=O)N[C@@H](CCC(=O)O)C(=O)N[C@@H](CCC(N)=O)C(=O)N[C@@H](C)C(=O)N[C@@H](CCCNC(=N)N)C(=O)N[C@@H](CCC(N)=O)C(=O)N[C@@H](CCCCN)C(=O)NC(C)(C)C(=O)N[C@@H](CCC(N)=O)C(=O)N[C@@H](CCCNC(=N)N)C(=O)N[C@@H](CCC(=O)O)C(=O)N[C@@H](CCC(N)=O)C(=O)N[C@@H](C)C(=O)N[C@@H](CCC(=O)O)C(=O)N[C@@H](CCCCN)C(=O)N[C@@H](CC(N)=O)C(=O)N[C@@H](CCCCN)C(=O)N[C@@H](CCCNC(=N)N)C(=O)N[C@H](C(=O)N[C@@H](CC(C)C)C(=O)N[C@@H](CCC(=O)O)C(=O)N[C@@H](CCCNC(=N)N)C(=O)N[C@H](C(N)=O)C(C)C)[C@@H](C)CC)[C@@H](C)CC)[C@@H](C)CC)C(C)C)C(C)C
Molecule B5 returned an EC50 [nM], 0% HSA of 0.05 nM and an EC50 [nM], 0.1% HSA of 1.42 nM.

B6: SEQ ID NO: 144 (peptide)
peptide: FTLSLDVPTKIK([AEEA-AEEA-γGlu-C18 diacid])QILLKQERQKKQRQKAKTNKQILERV-NH2
modifications: N-terminus assumed
SMILES: CC[C@H](C)[C@H](NC(=O)[C@H](CCC(N)=O)NC(=O)[C@H](CCCCN)NC(=O)[C@H](CC(N)=O)NC(=O)[C@@H](NC(=O)[C@H](CCCCN)NC(=O)[C@H](C)NC(=O)[C@H](CCCCN)NC(=O)[C@H](CCC(N)=O)NC(=O)[C@H](CCCNC(=N)N)NC(=O)[C@H](CCC(N)=O)NC(=O)[C@H](CCCCN)NC(=O)[C@H](CCCCN)NC(=O)[C@H](CCC(N)=O)NC(=O)[C@H](CCCNC(=N)N)NC(=O)[C@H](CCC(=O)O)NC(=O)[C@H](CCC(N)=O)NC(=O)[C@H](CCCCN)NC(=O)[C@H](CC(C)C)NC(=O)[C@H](CC(C)C)NC(=O)[C@@H](NC(=O)[C@H](CCC(N)=O)NC(=O)[C@H](CCCCNC(=O)COCCOCCNC(=O)COCCOCCNC(=O)CC[C@H](NC(=O)CCCCCCCCCCCCCCCCC(=O)O)C(=O)O)NC(=O)[C@@H](NC(=O)[C@H](CCCCN)NC(=O)[C@@H](NC(=O)[C@@H]1CCCN1C(=O)[C@@H](NC(=O)[C@H](CC(=O)O)NC(=O)[C@H](CC(C)C)NC(=O)[C@H](CO)NC(=O)[C@H](CC(C)C)NC(=O)[C@@H](NC(=O)[C@@H](N)Cc1ccccc1)[C@@H](C)O)C(C)C)[C@@H](C)O)[C@@H](C)CC)[C@@H](C)CC)[C@@H](C)O)C(=O)N[C@@H](CC(C)C)C(=O)N[C@@H](CCC(=O)O)C(=O)N[C@@H](CCCNC(=N)N)C(=O)N[C@H](C(N)=O)C(C)C
Take B6: the EC50 [nM], 0% HSA was 1.36 nM and the EC50 [nM], 0.1% HSA was found to be 76.3 nM.
